Holding throughout (assay): cell-based or functional assay
Test [1] has as its target HIV-1 93UG077 envelope glycoprotein (Env) (HIV-1).
In test [2] the target is HIV-1 94UG103 envelope protein (Env) on pseudovirus (HIV-1).
Test [3] has as its target HIV-1 APV-17 envelope protein (Env) on pseudovirus (HIV-1).
Test [4] concerns the target HIV-1 CMU02 envelope glycoprotein (Env) on pseudovirus (HIV-1).
The target in test [5] is HIV-1 Env of isolate 92UG024 (clade D) (HIV-1).
In test [6] the target is HIV-1 Env of isolate MGRM-G-011 (clade G pseudovirus) (HIV-1).
Test [7] deals with HIV-1 Env of isolate MGRM-G-014 (clade G pseudovirus) (HIV-1).
Test [8] concerns the target HIV-1 Env of pseudovirus MGRM-Chronic-B-003, clade B (HIV-1).
The target in test [9] is HIV-1 Env of pseudovirus SC422661.8 (Acute), clade B (HIV-1).
Test [10] concerns the target HIV-1 Env of pseudovirus VLGCB3, clade B (HIV-1).
For test [11], the target named is HIV-1 MGRM-A-002 envelope glycoprotein (Env) (HIV-1).
Test [12] deals with HIV-1 MGRM-A-004 envelope glycoprotein (Env) (HIV-1).
Test [13] concerns the target HIV-1 MGRM-A-008 envelope glycoprotein (Env) (HIV-1).
In test [14] the target is HIV-1 MGRM-C-010 Env (HIV-1).
Test [15] has as its target HIV-1 MGRM-C-015 Env (HIV-1).
Test [16] addresses HIV-1 MGRM-C-019 Env (HIV-1).
Test [17] concerns the target HIV-1 MGRM-F1-015 Env (pseudovirus) (HIV-1).
Test [18] deals with HIV-1 MGRM-F1-018 Env (pseudovirus) (HIV-1).
Test [19] has as its target HIV-1 Env of isolate 92TH021 (HIV-1).
Test [20] concerns the target HIV-1 APV_6 Env (pseudovirus) (HIV-1).
The target of test [21] is HIV-1 Env of isolate 92UG046 (subtype D) (HIV-1).
Test [22] concerns the target HIV-1 Env of isolate 98IN022 (pseudovirus) (HIV-1 isolate 98IN022, subtype C).
For test [23], the target named is HIV-1 Env of isolate MG RM-AG-002 (HIV-1).
Test [24] has as its target HIV-1 Env of isolate MG RM-D-013 (subtype D) (HIV-1).
The target in test [25] is HIV-1 Env of isolate MGRM-C-009 (pseudovirus) (HIV-1 isolate MGRM-C-009, subtype C).
Test [26] concerns the target HIV-1 Env of isolate MGRM-C-012 (pseudovirus) (HIV-1 isolate MGRM-C-012, subtype C).
The target in test [27] is HIV-1 Env of isolate MGRM-C-017 (pseudovirus) (HIV-1 isolate MGRM-C-017, subtype C).
The target of test [28] is HIV-1 Env of isolate MGRM-C-025 (pseudovirus) (HIV-1 isolate MGRM-C-025, subtype C).
For test [29], the target named is HIV-1 Env of isolate MGRM-F1-013 (HIV-1).
In test [30] the target is HIV-1 Env of isolate MGRM-F1-016 (HIV-1).
Test [31] concerns the target HIV-1 JR-CSF Env D167A (HIV-1 (isolate JR-CSF)) (UniProt P20871).
The target in test [32] is HIV-1 JR-CSF Env E172A (HIV-1 (isolate JR-CSF)) (UniProt P20871).
In test [33] the target is HIV-1 THR0.18 Env (pseudovirus) (HIV-1).
The target of test [34] is HIV-1 TRJ04551.58 Env (pseudovirus) (HIV-1).

One may read the IC50 as the concentration that inhibits the measured activity by half. Regarding 2F5 (antibody), the IC50 (µg/ml), pseudovirus neutralization was 3.3 µg/mL in [1]; 0.95 µg/mL in test [5]; 1.16 µg/mL in test [6]; 9.65 µg/mL in test [7]; 1 µg/mL in [8]; more than 50 µg/mL in [9]. In addition, the IC50 (µg/ml), pseudovirus neutralization in test [10] is more than 50 µg/mL; in [11], more than 50 µg/mL; in test [12], 7.49 µg/mL; in test [13], more than 50 µg/mL; in test [17] it was 0.1 µg/mL; in test [18], 3.91 µg/mL. The figures for the neutralization IC50 in test [2] and in test [3] were 3.79 µg/mL and 2 µg/mL, respectively. For the same substance, the IC90 (pseudovirus neutralization) in test [4] was determined as 12.2 µg/mL. Also, the half-maximal inhibitory concentration (IC50) in test [14], in test [15] and in test [16] was more than 50 µg/mL each time.

On to 1495_C14 (PGC14) (antibody), for which the IC50 (µg/ml), pseudovirus neutralization in [1], in test [19], in test [5], in [6], in test [7] and in test [8] was more than 50 µg/mL in each case. The IC50 (µg/ml), pseudovirus neutralization was more than 50 µg/mL in test [9]; 21 µg/mL in test [10]; more than 50 µg/mL in [11]; more than 50 µg/mL in [12]; more than 50 µg/mL in test [13]; more than 50 µg/mL in [17]. The IC50 (µg/ml), pseudovirus neutralization in test [18] was more than 50 µg/mL. In addition, the neutralization IC50 in test [2] and in test [3] was more than 50 µg/mL in each case. In addition, the half-maximal inhibitory concentration (IC50) in test [14] is more than 50 µg/mL; in [15], more than 50 µg/mL; in test [16], 12 µg/mL.

In the case of 4858_P08 (PGT-123) (antibody), the IC50, pseudovirus neutralization was 0.023 µg/mL in test [20], more than 10 µg/mL in [4], more than 50 µg/mL in test [33] and 16.9 µg/mL in test [34]. This substance yielded an IC50 (ug/ml), neutralizing activity in test [4] of more than 10 µg/mL. In [4], this substance showed an IC80, pseudovirus neutralization of more than 10 µg/mL. In [4], this substance displayed an IC90 (pseudovirus neutralization) of more than 10 µg/mL. Besides, in test [4], the IC95, pseudovirus neutralization is more than 10 µg/mL. Besides, the IC50 (µg/mL), pseudovirus neutralization in test [21] and in [24] was more than 50 µg/mL in each case. The IC50 (µg/mL) neutralization in [22] was 0.011 µg/mL; in [25], more than 50 µg/mL; in [26], 0.605 µg/mL; in test [27], 0.01 µg/mL; in [28], 13.3 µg/mL. Further, the neutralization IC50 in test [23] was more than 50 µg/mL. The values for the IC50 in [29] and in [30] were 0.08 µg/mL and 4.95 µg/mL, respectively. Besides, the figures for the Fold IC50 increase relative to wild-type in test [31] and in [32] were 1.2 fold and 1.1 fold, respectively.

Regarding 4877_D15 (PGT-122) (antibody), the IC50, pseudovirus neutralization in test [20] is 0.019 µg/mL; in test [33] it was more than 50 µg/mL; in [34], more than 50 µg/mL. This substance gave an IC50 (ug/ml), neutralizing activity in [4] of more than 10 µg/mL. Also, the IC50 (µg/mL), pseudovirus neutralization in test [21] and in test [24] was more than 50 µg/mL throughout. Moreover, the IC50 (µg/mL) neutralization in [22] is 0.032 µg/mL; in [25], more than 50 µg/mL; in test [26], 2 µg/mL; in test [27] it was 0.015 µg/mL; in test [28], 8.69 µg/mL. Besides, the neutralization IC50 in test [23] is more than 50 µg/mL. For the same substance, the IC50 in test [29] was found to be 0.152 µg/mL; in test [30], 4.81 µg/mL.

In the case of 5123_A06 (PGT-125) (antibody), the IC50, pseudovirus neutralization in test [20] was 0.021 µg/mL; in test [33], more than 50 µg/mL; in test [34] it was 0.019 µg/mL. In [4], this substance returned an IC50 (ug/ml), neutralizing activity of more than 10 µg/mL. The neutralization IC50 in test [4] was more than 10 µg/mL; in test [23] it was more than 50 µg/mL. In test [4], the neutralization IC80 was more than 10 µg/mL. The substance further displayed a neutralization IC90 in [4] of more than 10 µg/mL. The substance further returned a neutralization IC95 in [4] of more than 10 µg/mL. The IC50 (µg/mL), pseudovirus neutralization in [21] and in test [24] was more than 50 µg/mL each time. The IC50 (µg/mL) neutralization in test [22] was 22.1 µg/mL; in test [25], more than 50 µg/mL; in test [26] it was more than 50 µg/mL; in [27] it was 2.36 µg/mL; in [28], 42.5 µg/mL. The IC50 in [29] and in test [30] was more than 50 µg/mL throughout. For the same substance, the Fold IC50 increase relative to wild-type is 1.7 fold in test [31] and 1.8 fold in test [32].

Turning to 5141_B17 (PGT-126) (antibody), the IC50, pseudovirus neutralization in test [20] was 0.007 µg/mL; in [33], more than 50 µg/mL; in test [34], 0.025 µg/mL. The substance further registered an IC50 (ug/ml), neutralizing activity in test [4] of more than 10 µg/mL. Moreover, the IC50 (µg/mL), pseudovirus neutralization in test [21] and in test [24] was more than 50 µg/mL in each case. The IC50 (µg/mL) neutralization in test [22] is 0.279 µg/mL; in test [25], more than 50 µg/mL; in test [26], 0.111 µg/mL; in test [27], 0.17 µg/mL; in [28], 0.786 µg/mL. The same substance had a neutralization IC50 in [23] of more than 50 µg/mL. The concentration for half-maximal inhibition (IC50) in test [29] and in [30] was more than 50 µg/mL each time. In addition, the Fold IC50 increase relative to wild-type in [31] turned out to be 1.6 fold; in test [32] it was 0.7 fold.

Take 5145_B14 (PGT-127) (antibody): the IC50, pseudovirus neutralization in test [20] was 0.04 µg/mL; in [33], more than 50 µg/mL; in test [34], 0.063 µg/mL. The IC50 (µg/mL), pseudovirus neutralization in [21] and in [24] was more than 50 µg/mL each time. Moreover, the IC50 (µg/mL) neutralization is 19.2 µg/mL in test [22]; more than 50 µg/mL in [25]; 1.07 µg/mL in test [26]; 3.4 µg/mL in test [27]; more than 50 µg/mL in test [28]. The neutralization IC50 in test [23] was more than 50 µg/mL. In addition, the IC50 in test [29] and in [30] was more than 50 µg/mL in each case. Moreover, the values for the Fold IC50 increase relative to wild-type in test [31] and in test [32] were 1.6 fold and 2.1 fold, respectively.

b12 (antibody): the IC50 (µg/ml), pseudovirus neutralization is 47 µg/mL in test [1]; 45.6 µg/mL in test [5]; more than 50 µg/mL in [6]; more than 50 µg/mL in test [7]; more than 50 µg/mL in test [8]; 6.11 µg/mL in test [9]. Further, the IC50 (µg/ml), pseudovirus neutralization in [10] is 0.15 µg/mL; in test [11], more than 50 µg/mL; in test [12], more than 50 µg/mL; in test [13], more than 50 µg/mL; in [17], more than 50 µg/mL; in [18], more than 50 µg/mL. Moreover, the neutralization IC50 was 3.54 µg/mL in test [2] and more than 25 µg/mL in test [3]. The IC90 (pseudovirus neutralization) in test [4] was found to be 34.2 µg/mL. For the same substance, the IC50 in [14] is more than 50 µg/mL; in [15], 13.3 µg/mL; in [16], more than 50 µg/mL.

For the origin of these results see patent US20200024330A1.
